Measured values from the supplement of paper PMC9170038.

Tested on: MS2 coat protein
Experiment: apparent KD of MS2 coat protein; designed switch direction (-1 OFF switch, 1 ON switch): -1; higher = weaker reporter binding
Outline: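 Normalised cluster fluorescence was curve-fitted, and each design's median over clusters is its apparent KD. Before this, SNAP-549-labelled MS2 coat protein was titrated from 0.7 or 1.5 nM, doubling to 3 µM, over RNA switches transcribed on Illumina chips by stalled E. coli RNA polymerase. Titrations had no input, 200 uM small-molecule ligand, or an oligonucleotide input, and steps lasted 0.8–1.5 h (lowest) to 10–20 min (highest).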

[1] = input ligand: microRNA oligo, concentration not stated
[2] = Eterna round: R95, input ligand: FMN 200 uM
[3] = Eterna round: R95, input ligand: microRNA oligo, concentration not stated
[4] = Eterna round: R95, input ligand: none

| Sequence | apparent KD of MS2 coat protein (input ligand: FMN 200 uM) | apparent KD of MS2 coat protein [1] | apparent KD of MS2 coat protein (input ligand: none) | apparent KD of MS2 coat protein [2] | apparent KD of MS2 coat protein [3] | apparent KD of MS2 coat protein [4] |
| --- | --- | --- | --- | --- | --- | --- |
| CGUGCGUAUGUGAGGAUAUGCUGGUCCUUGGCUCGGCAGAAGGCACAUGAGGAUCACCCAUGUGGUGUCGUACU [salish99_Bmod_ex4_069] (Eterna round: R96, puzzle: Brourd's mod of Exclusion 4) | 291 nM | 61.1 nM | 67.5 nM |  |  |  |
| CACGGGUAAGGAUAUACAAGUGAGAAAGGUAUGUGCAAAUAACAUGAGGAUCACCCAUGUAGAAGGUACGCCGG [Cearxeen] (puzzle: Exclusion 2) |  |  |  | 27.1 nM | 16.9 nM | 14.9 nM |
| ACAAGCAAGACAGGAUAUACGAAGCACGUUGUGGUCUGUGACAUGAGGAUCACCCAUGUGUGAGAGUAGAAGGGUUUUGAUCCC [Edarenraat] (Eterna round: R96, puzzle: Exclusion NG 2) | 1140 nM | 685 nM | 828 nM |  |  |  |
| GAGCUGAACUCAGGAUAUUGCGAGUCUUGGGUGACAGCUCUGACAUGAGGAUCACCCAUGUACUCCGAGAAGGGAGGCCGGUAA [Zainve] (Eterna round: R96, puzzle: Exclusion NG 2) | 125 nM | 113 nM | 185 nM |  |  |  |
| AGGAUGUUAGGAUAUCGGAGAUGCUGGAGGAGGUGGAUUUACGAGAAGGAACAUGAGGAUCACCCAUGUGGAAG [JR_Exclu4_Sub046] (puzzle: Exclusion 4) |  |  |  | 35.1 nM | 25.8 nM | 27.2 nM |
| UAAAUGUCAGGAUAUUGUUAAUUUAGUUGUUUGUAUUAGUUCGAGAAGGGACAUGAGGAUCACCCAUGUUAAAA [Ex4 #52] (Eterna round: R97, puzzle: Exclusion 4) | 37.6 nM |  | 31 nM |  |  |  |
| GAGUAGAGAGGAUAUGCAAUGAUCAUCGUACGAUGAGGCUGACAUGAGGAUCACCCAUGUAGAAGGCUCUGAUC [EX2 #19] (Eterna round: R97, puzzle: Exclusion 2) | 22.1 nM |  | 30.7 nM |  |  |  |
| UUAAGUUCAGGAUAUGAUGAAUUAAACAUGAGGAUCACCCAUGUAGAUCCUGAAAUAACAUCAGAAGGGAAUAUUU [JL-ex5-4.51 Brourd mod] (Eterna round: R97, puzzle: Exclusion 5) | 57 nM |  | 17.6 nM |  |  |  |
| UCGGCGCGAGGAUAUGCGGUUGCUCCCUAGGGUCGGAGCGUACAUGAGGAUCACCCAUGUAGAAGGCGCGCCGC [Apr-15 SS2-34] (puzzle: Exclusion 2) |  |  |  |  | 12.4 nM |  |
| AGACCACAUGAGGAUCACCCAUGUCAGGAUAUCGACUGAACAGCUUCGGCUGUUCAGUCGAGAAGGGACAAUUA [Brourdxlusion 8 - Jieux - Exclusion 1] (Eterna round: R97, puzzle: Exclusion 1) | 60 nM |  | 52.7 nM |  |  |  |
| GUGGUACAUGAGGAUCACCCAUGUCAGGAUAUCGCGUGGUUUUUUGCGGCCGCGCGCGCGAGAAGGGACGUCUU (puzzle: Exclusion 1) |  |  |  |  | 29.1 nM |  |
| GCGCACCUACCAAAAGGUAGGUCCACAUGAGGAUCACCCAUGUAGGAUAUCGAUUGCUUUGCAGUCGAGAAGGACGUGAUGCGC [JL ENG3 3.80 Mod 16] (Eterna round: R96, puzzle: Exclusion NG 3) | 51.6 nM | 27.3 nM | 32.3 nM |  |  |  |
| CCUGCACAUGAGGAUCACCCAUGUUAGGAUAUCUCGCCGUCGGCUUGCCGACGGUAUUAGAGAAGGGACAAGGG [JL Tixe mod 3] (puzzle: Exclusion 1) |  |  |  |  | 39.5 nM |  |
| UACAAUAAGGAGGAUAUCGUAUCGGAAACGAUACGAGAAGGCUUAACAUGAGGAUCACCCAUGUUCUUCAAUAU [Mat - Exclusion 6 - Eli Mod - D97] (puzzle: Exclusion 6) |  |  |  | 18.7 nM | 15.2 nM | 15.6 nM |
| AGAAAUGCCCAUGGCCGCAAGCUUUUUACUUGUCUUACCACAUGAGGAUCACCCAUGUGACAUGGGCUCCUGAUAAU [Mabeonen] (puzzle: Sensor v3, turn-off variant 2) |  |  |  | 15 nM | 27.5 nM | 13.4 nM |
| AAAUACAGAGGAUAUAUGGAAAACGACUUGAGGAUCACCCAAGUACGGGUGGCCUAACCCGUAGAAGGCUGCCAAA [Tibece] (Eterna round: R97, puzzle: Exclusion 5) | 72.5 nM |  | 30.6 nM |  |  |  |
| UGUUUGUCAGGAUAUGCUAGUGCUAGUGAAAGCUAGUGCUAGUAGAAGGGACAUGAGGAUCACCCAUGUGAACG [-27.1, -27 kcal, A 26%, 2bis-(ca)2] (Eterna round: R97, puzzle: Exclusion 4) | 117 nM |  | 54.1 nM |  |  |  |
| AGUAAGCUAGGAUAUGCUUUGGGAAAGCAUUCCUUCGAUAAACUUGAGGAUCACCCAAGUAGAAGGAGCUUACU [jl-ex2.4.51 ViennaUCT mod] (Eterna round: R97, puzzle: Exclusion 2) | 22.9 nM |  | 12 nM |  |  |  |
| UGGUGUGAAGGAUAUACAUGAGGAUCACCCAUGUAUGAGGUGGAGGUUGAGGUGGAGGGUAGAAGGUCAGGUGG [JR_Exclusion3_Sub012] (puzzle: Exclusion 3) |  |  |  |  | 26.8 nM |  |
| CACCGUUAGUGAGGAUAUCUUACAUGAGGAUCACCCAUGUAAUAAAUGAGAAUUUCGGAUGUAUGAGAGAAGGCACAAAUCGGC [Ostricism 53 - Jieux - Exclusion NG 2] (Eterna round: R96, puzzle: Exclusion NG 2) | 21.2 nM | 18.5 nM | 22.7 nM |  |  |  |
| UUUUUAUAUGAAGGAUAUACUUAACAUGAGGAUCACCCAUGUGGUGUUGUGAGUGAGUGAGUUUAGUAGAAGGUCAAUUCUUUU [JMF's solution 11] (Eterna round: R96, puzzle: Exclusion NG 2) | 957 nM | 395 nM | 510 nM |  |  |  |
| AUUGUUUAUGUAGGAUAUGCCUGGCGUGCCUUUGCAGAAGGACAUGAGGAUCACCCAUGUAACAUGAGGCUCACCCUUGUCGCA [salish99_ExNG1_r04_114] (Eterna round: R96, puzzle: Exclusion NG 1) | 147 nM | 81.4 nM | 95.5 nM |  |  |  |
| UGAUCUAGCGGAGGAUAUACAUGAGGAUCACCCAUGUAGACUCCAUGACCGUAGUCGUGGAGUGUGUAGAAGGCCGCUAGAUCU [JL ENG2 3.73] (Eterna round: R96, puzzle: Exclusion NG 2) | 15.2 nM | 9.33 nM | 12 nM |  |  |  |
